Assay [1] concerns the target glycosylated prostate specific antigen (human) (UniProt P07288). Briefly: BLI; […] (0.4 μg mL^-1) […]. (In general: In BLI a coated tip is dipped into the sample, and binding shifts an interference pattern.)
Assay [2] deals with neuraminidase-treated glycosylated human PSA (human) (UniProt P07288). Briefly: BLI; […] (15 μg mL^-1) […], in buffer.

In assay [1], Sambucus nigra lectin (natural protein) registered a maximum signal to noise (PSA against no PSA) of 12.8 and a signal to noise (PSA against no PSA) of 1.5. Also, the reduction in signal against fresh glycosylated PSA in assay [2] was found to be 50%.

Values taken from paper PMC9969229.
